Source: PMC9864772

Tested on: PTB1 (polypyrimidine-tract-binding protein isoform 1)
Experiment: filter binding

Substance	Kd [nM]
EMCV 5'UTR RNA	127
HCV 5'UTR RNA	242
